B1: Ankyrin-3, residues 4094 to 4171; numbered along this chain, Q12955 (parent)
chain: MAIVADHLGLSWTELARELNFSVDEINQIRVENPNSLISQSFMLLKKWVTRDGKNATTDALTSVLTKINRIDIVTLLE

The record followed here is the Human Domainome abundance scans (Beltran et al. 2025).

± gives the uncertainty stated by the source.

Variants of B1 are the subject of this data set. The data set can be described thus: abundance fitness (aPCA) (normalised: wild type 0, dead -1); higher = more abundant; growth selection in yeast, the domain comes from the species named. The conditions noted are these: Homo sapiens.
MAIVADHLGLSWTELARELNFSVDEINQIRVENPNSLISQSFMLLKKWVTVDGKNATTDALTSVLTKINRIDIVTLLE [R51V]: the abundance fitness is -0.789 ± 0.12.

Consider MAIVADHLGLSWTELARELNFSVDEINQIRVENPNSLISQSFMLLKKWVTGDGKNATTDALTSVLTKINRIDIVTLLE [R51G], for which the abundance fitness was -0.499 ± 0.082.

In the case of MAIVADHLGLSWTELARELNFSVDEINQIRVENPNSLISQSFMLLKKWVTTDGKNATTDALTSVLTKINRIDIVTLLE [R51T], the abundance fitness is -1.02 ± 0.29.

As to MAIVADHLGLSWTELARELNFSVDEINQIRVENPNSLISQSFMLLKKWVTHDGKNATTDALTSVLTKINRIDIVTLLE [R51H], the abundance fitness was -0.848 ± 0.25.

Take MAIVADHLGLSWTELARELNFSVDEINQIRVENPNSLISQSFMLLKKWVTADGKNATTDALTSVLTKINRIDIVTLLE [R51A]: the abundance fitness was -0.78 ± 0.12.

As for MAIVADHLGLSWTELARELNFSVDEINQIRVENPNSLISQSFMLLKKWVTQDGKNATTDALTSVLTKINRIDIVTLLE [R51Q], the abundance fitness is -0.994 ± 0.21.

With MAIVADHLGLSWTELARELNFSVDEINQIRVENPNSLISQSFMLLKKWVTIDGKNATTDALTSVLTKINRIDIVTLLE [R51I], the abundance fitness is -0.616 ± 0.35.

In the case of MAIVADHLGLSWTELARELNFSVDEINQIRVENPNSLISQSFMLLKKWVTWDGKNATTDALTSVLTKINRIDIVTLLE [R51W], the abundance fitness is -0.503 ± 0.31.

Take MAIVADHLGLSWTELARELNFSVDEINQIRVENPNSLISQSFMLLKKWVTDDGKNATTDALTSVLTKINRIDIVTLLE [R51D]: the abundance fitness is -0.637 ± 0.46.

MAIVADHLGLSWTELARELNFSVDEINQIRVENPNSLISQSFMLLKKWVTMDGKNATTDALTSVLTKINRIDIVTLLE [R51M]: the abundance fitness is -0.682 ± 0.18.

As for MAIVADHLGLSWTELARELNFSVDEINQIRVENPNSLISQSFMLLKKWVTCDGKNATTDALTSVLTKINRIDIVTLLE [R51C], the abundance fitness was -0.744 ± 0.26.

MAIVADHLGLSWTELARELNFSVDEINQIRVENPNSLISQSFMLLKKWVTLDGKNATTDALTSVLTKINRIDIVTLLE [R51L]: the abundance fitness is -0.829 ± 0.096.

As for MAIVADHLGLSWTELARELNFSVDEINQIRVENPNSLISQSFMLLKKWVTKDGKNATTDALTSVLTKINRIDIVTLLE [R51K], the abundance fitness is -0.531 ± 0.12.

For the variant MAIVADHLGLSWTELARELNFSVDEINQIRVENPNSLISQSFMLLKKWVTYDGKNATTDALTSVLTKINRIDIVTLLE [R51Y], the abundance fitness was -0.773 ± 0.37.

As for MAIVADHLGLSWTELARELNFSVDEINQIRVENPNSLISQSFMLLKKWVTPDGKNATTDALTSVLTKINRIDIVTLLE [R51P], the abundance fitness is -0.77 ± 0.11.

For the variant MAIVADHLGLSWTELARELNFSVDEINQIRVENPNSLISQSFMLLKKWVTRAGKNATTDALTSVLTKINRIDIVTLLE [D52A], the abundance fitness is -0.274 ± 0.055.

With MAIVADHLGLSWTELARELNFSVDEINQIRVENPNSLISQSFMLLKKWVTRPGKNATTDALTSVLTKINRIDIVTLLE [D52P], the abundance fitness was -0.767 ± 0.21.

Consider MAIVADHLGLSWTELARELNFSVDEINQIRVENPNSLISQSFMLLKKWVTRNGKNATTDALTSVLTKINRIDIVTLLE [D52N], for which the abundance fitness was -0.687 ± 0.41.

Turning to MAIVADHLGLSWTELARELNFSVDEINQIRVENPNSLISQSFMLLKKWVTRWGKNATTDALTSVLTKINRIDIVTLLE [D52W], the abundance fitness is -0.874 ± 0.18.

Take MAIVADHLGLSWTELARELNFSVDEINQIRVENPNSLISQSFMLLKKWVTRIGKNATTDALTSVLTKINRIDIVTLLE [D52I]: the abundance fitness is -0.255 ± 0.17.

Turning to MAIVADHLGLSWTELARELNFSVDEINQIRVENPNSLISQSFMLLKKWVTRGGKNATTDALTSVLTKINRIDIVTLLE [D52G], the abundance fitness is -0.625 ± 0.066.

Consider MAIVADHLGLSWTELARELNFSVDEINQIRVENPNSLISQSFMLLKKWVTRFGKNATTDALTSVLTKINRIDIVTLLE [D52F], for which the abundance fitness was -0.748 ± 0.26.

On to MAIVADHLGLSWTELARELNFSVDEINQIRVENPNSLISQSFMLLKKWVTRYGKNATTDALTSVLTKINRIDIVTLLE [D52Y], for which the abundance fitness is -0.717 ± 0.29.

For MAIVADHLGLSWTELARELNFSVDEINQIRVENPNSLISQSFMLLKKWVTRVGKNATTDALTSVLTKINRIDIVTLLE [D52V], the abundance fitness is -0.575 ± 0.076.

For MAIVADHLGLSWTELARELNFSVDEINQIRVENPNSLISQSFMLLKKWVTRQGKNATTDALTSVLTKINRIDIVTLLE [D52Q], the abundance fitness is -0.359 ± 0.062.

For the variant MAIVADHLGLSWTELARELNFSVDEINQIRVENPNSLISQSFMLLKKWVTRHGKNATTDALTSVLTKINRIDIVTLLE [D52H], the abundance fitness is -0.577 ± 0.2.

Consider MAIVADHLGLSWTELARELNFSVDEINQIRVENPNSLISQSFMLLKKWVTRSGKNATTDALTSVLTKINRIDIVTLLE [D52S], for which the abundance fitness is -0.589 ± 0.085.

Turning to MAIVADHLGLSWTELARELNFSVDEINQIRVENPNSLISQSFMLLKKWVTREGKNATTDALTSVLTKINRIDIVTLLE [D52E], the abundance fitness is -0.025 ± 0.074.

On to MAIVADHLGLSWTELARELNFSVDEINQIRVENPNSLISQSFMLLKKWVTRTGKNATTDALTSVLTKINRIDIVTLLE [D52T], for which the abundance fitness was -0.607 ± 0.098.

Consider MAIVADHLGLSWTELARELNFSVDEINQIRVENPNSLISQSFMLLKKWVTRLGKNATTDALTSVLTKINRIDIVTLLE [D52L], for which the abundance fitness was -0.89 ± 0.15.

On to MAIVADHLGLSWTELARELNFSVDEINQIRVENPNSLISQSFMLLKKWVTRKGKNATTDALTSVLTKINRIDIVTLLE [D52K], for which the abundance fitness is -0.358 ± 0.24.

As to MAIVADHLGLSWTELARELNFSVDEINQIRVENPNSLISQSFMLLKKWVTRCGKNATTDALTSVLTKINRIDIVTLLE [D52C], the abundance fitness is -0.549 ± 0.17.

For the variant MAIVADHLGLSWTELARELNFSVDEINQIRVENPNSLISQSFMLLKKWVLRDGKNATTDALTSVLTKINRIDIVTLLE [T50L], the abundance fitness is 0.041 ± 0.044.

MAIVADHLGLSWTELARELNFSVDEINQIRVENPNSLISQSFMLLKKWVPRDGKNATTDALTSVLTKINRIDIVTLLE [T50P]: the abundance fitness was -1.02 ± 0.18.

As to MAIVADHLGLSWTELARELNFSVDEINQIRVENPNSLISQSFMLLKKWVNRDGKNATTDALTSVLTKINRIDIVTLLE [T50N], the abundance fitness is -0.204 ± 0.23.
